In PMC3035450 one finds Kd data, which are given here for 8 molecules.

This data set concerns the target thrombin (UniProt P00734;P00734 328-363;364-622). Briefly: SPR. (In general: Surface plasmon resonance follows binding to a sensor surface in real time, without labels.)
Take GGTTGGTGTGGTTGG (structured_DNA, UNA-G at 8) [G8]: the equilibrium dissociation constant (Kd) (as a rule, the free concentration of one partner at which half of the binding sites on the other are occupied at equilibrium, for simple one-to-one binding) worked out at 913 ± 21.2 nM.

The molecule GGTTGGTGTGGTTGG (structured_DNA, UNA-G at 15) [G15] had an equilibrium dissociation constant (Kd) of 155 ± 7.4 nM.

In turn, GGTTGGTGTGGTTGG (structured_DNA, UNA-G at 10) [G10] had a Kd of 222 ± 9.3 nM.

As for GGTTGGTGTGGTTGG (structured_DNA, UNA-G at 5) [G5], the affinity, expressed as Kd, was 425 ± 17.7 nM.

In turn, GGTTGGTGTGGTTGG (structured_DNA, UNA-G at 1) [G1] registered a Kd of 95.4 ± 3.9 nM.

As to GGTTGGTGTGGTTGG (structured_DNA, UNA-G at 6) [G6], the Kd came out at 287 ± 12.3 nM.

Consider GGTTGGTGTGGTTGG (structured_DNA) [TBA], for which binding was put at a Kd of 103 ± 5.1 nM.

Molecule GGTTGGTGTGGTTGG (structured_DNA, UNA-G at 2) [G2] yielded a Kd of 298 ± 5.7 nM.
